Experimental data taken from patent publication US20240092890A1 (JUNTENDO EDUCATIONAL FOUNDATION, published 2024).

What was measured:
[1] = target: T1, Ins 5 type mutant CALR protein on UT-7/TPO CALR Ins 5 cells (UniProt P27797 18-417); experiment: cell-based or functional assay
T1 sequence (looked up): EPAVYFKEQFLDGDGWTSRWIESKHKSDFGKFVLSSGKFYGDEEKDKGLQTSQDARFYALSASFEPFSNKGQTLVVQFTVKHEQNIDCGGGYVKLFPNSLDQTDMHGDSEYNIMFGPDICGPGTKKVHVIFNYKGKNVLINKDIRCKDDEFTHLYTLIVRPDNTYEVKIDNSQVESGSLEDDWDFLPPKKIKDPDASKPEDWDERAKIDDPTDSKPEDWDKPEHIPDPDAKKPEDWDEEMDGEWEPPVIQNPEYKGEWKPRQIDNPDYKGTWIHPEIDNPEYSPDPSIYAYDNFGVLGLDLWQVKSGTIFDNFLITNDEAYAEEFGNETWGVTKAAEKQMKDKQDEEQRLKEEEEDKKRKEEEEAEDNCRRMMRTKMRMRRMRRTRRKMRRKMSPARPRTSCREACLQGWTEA

[2] = target: T2, protein having an Fc region and a His-tag added to the N-terminus of SEQ ID NO: 1; experiment: BLItz biolayer interferometry, Fc/His-SEQ ID NO: 1 protein on the biosensor
T2 construct: also called mutant CALR protein (antigen of the BLItz measurement); not shown: Fc region and His-tag at the N-terminus
T2 chain: RRMMRTKMRMRRM
Method: As another method, measurements were performed using the molecular interaction analysis system BLItz (ForteBio), which applies biolayer interferometry […]. Specifically, a protein having an Fc region and a His-tag added to the N-terminus of SEQ ID NO: 1 was immobilized at a concentration of 0.1 mg/mL using the Anti-Penta-HIS or ProteinA biosensor (ForteBio). Subsequently, the antibodies 1 to 114 made were prepared at a concentration of 500, 100, and 50 nM and reacted to acquire the dissociation constant.

Binder | EC50 of cytotoxic activity (calcein release, T-LAK effector cells) [1] | Kd [2]
Antibody 22 (bispecific antibody, hOKT3 scFv, B3 Fab heavy chain and CH3 domain in one polypeptide, with the B3 light chain) heavy: QVQLVQSGGGVVQPGRSLRLSCKASGYTFTRYTMHWVRQAPGKGLEWIGYINPSRGYTNYNQKVKDRFTISRDNSKNTAFLQMDSLRPEDTGVYFCARYYDDHYSLDYWGQGTPVTVSSGGGGSGGGGSGGGGSDIQMTQSPSSLSASVGDRVTITCSASSSVSYMNWYQQTPGKAPKRWIYDTSKLASGVPSRFSGSGSGTDYTFTISSLQPEDIATYYCQQWSSNPFTFGQGTKLQITRGGGGSQVQLQQSGAELVKPGSSVKISCKASGYTFTRNFIHWIKQQPGNGLEWIGWIFPGDGDTEYNQKFNGKATLTADKSSSTAYMQLSSLTSEDSAVYFCARGNYNYEYFDYWGQGVMVTVSSASTKGPSVFPLAPSSKSTSGGTAALGCLVKDYFPEPVTVSWNSGALTSGVHTFPAVLQSSGLYSLSSVVTVPSSSLGTQTYICNVNHKPSNTKVDKRVEPKSCAAAGGGQPREPQVYTLPPSREEMTKNQVSLTCLVKGFYPSDIAVEWESNGQPENNYKTTPPVLDSDGSFFLYSKLTVDKSRWQQGNVFSCSVMHEALHNHYTQKSLSLSPGK light: DIQMTQSPASLSASLGETVSIECLASEDIYSYLAWYQQKPGKSPQLLIFAANRLQDGVPSRFSGSGSGTQFSLKISGMQPEDEGDYFCLQGSKFPYTFGPGTKLELNRTVAAPSVFIFPPSDEQLKSGTASVVCLLNNFYPREAKVQWKVDNALQSGNSQESVTEQDSKDSTYSLSSTLTLSKADYEKHKVYACEVTHQGLSSPVTKSFNRGEC | 0.101 nM | < 1e-06 µM
Antibody 23 (bispecific antibody, B3 Fab with hOKT3 scFv fused to the light chain N-terminus) heavy: QVQLQQSGAELVKPGSSVKISCKASGYTFTRNFIHWIKQQPGNGLEWIGWIFPGDGDTEYNQKFNGKATLTADKSSSTAYMQLSSLTSEDSAVYFCARGNYNYEYFDYWGQGVMVTVSSASTKGPSVFPLAPSSKSTSGGTAALGCLVKDYFPEPVTVSWNSGALTSGVHTFPAVLQSSGLYSLSSVVTVPSSSLGTQTYICNVNHKPSNTKVDKRVEPKSCHHHHHH light: QVQLVQSGGGVVQPGRSLRLSCKASGYTFTRYTMHWVRQAPGKGLEWIGYINPSRGYTNYNQKVKDRFTISRDNSKNTAFLQMDSLRPEDTGVYFCARYYDDHYSLDYWGQGTPVTVSSGGGGSGGGGSGGGGSDIQMTQSPSSLSASVGDRVTITCSASSSVSYMNWYQQTPGKAPKRWIYDTSKLASGVPSRFSGSGSGTDYTFTISSLQPEDIATYYCQQWSSNPFTFGQGTKLQITRGGGGSDIQMTQSPASLSASLGETVSIECLASEDIYSYLAWYQQKPGKSPQLLIFAANRLQDGVPSRFSGSGSGTQFSLKISGMQPEDEGDYFCLQGSKFPYTFGPGTKLELNRTVAAPSVFIFPPSDEQLKSGTASVVCLLNNFYPREAKVQWKVDNALQSGNSQESVTEQDSKDSTYSLSSTLTLSKADYEKHKVYACEVTHQGLSSPVTKSFNRGEC | 0.37 nM | 0.00679 µM
Antibody 24 (bispecific antibody, human IgG1, kappa, L234A L235A, B3 IgG with hOKT3 scFv fused to the light chain N-terminus) heavy: not shown light: QVQLVQSGGGVVQPGRSLRLSCKASGYTFTRYTMHWVRQAPGKGLEWIGYINPSRGYTNYNQKVKDRFTISRDNSKNTAFLQMDSLRPEDTGVYFCARYYDDHYSLDYWGQGTPVTVSSGGGGSGGGGSGGGGSDIQMTQSPSSLSASVGDRVTITCSASSSVSYMNWYQQTPGKAPKRWIYDTSKLASGVPSRFSGSGSGTDYTFTISSLQPEDIATYYCQQWSSNPFTFGQGTKLQITRGGGGSDIQMTQSPASLSASLGETVSIECLASEDIYSYLAWYQQKPGKSPQLLIFAANRLQDGVPSRFSGSGSGTQFSLKISGMQPEDEGDYFCLQGSKFPYTFGPGTKLELNRTVAAPSVFIFPPSDEQLKSGTASVVCLLNNFYPREAKVQWKVDNALQSGNSQESVTEQDSKDSTYSLSSTLTLSKADYEKHKVYACEVTHQGLSSPVTKSFNRGEC | 0.138 nM | 0.000531 µM
Antibody 26 (bispecific antibody, B3 Fab with hOKT3 scFv fused to the N-termini of both the heavy and the light chain) heavy: QVQLVQSGGGVVQPGRSLRLSCKASGYTFTRYTMHWVRQAPGKGLEWIGYINPSRGYTNYNQKVKDRFTISRDNSKNTAFLQMDSLRPEDTGVYFCARYYDDHYSLDYWGQGTPVTVSSGGGGSGGGGSGGGGSDIQMTQSPSSLSASVGDRVTITCSASSSVSYMNWYQQTPGKAPKRWIYDTSKLASGVPSRFSGSGSGTDYTFTISSLQPEDIATYYCQQWSSNPFTFGQGTKLQITRGGGGSQVQLQQSGAELVKPGSSVKISCKASGYTFTRNFIHWIKQQPGNGLEWIGWIFPGDGDTEYNQKFNGKATLTADKSSSTAYMQLSSLTSEDSAVYFCARGNYNYEYFDYWGQGVMVTVSSASTKGPSVFPLAPSSKSTSGGTAALGCLVKDYFPEPVTVSWNSGALTSGVHTFPAVLQSSGLYSLSSVVTVPSSSLGTQTYICNVNHKPSNTKVDKRVEPKSCHHHHHH light: QVQLVQSGGGVVQPGRSLRLSCKASGYTFTRYTMHWVRQAPGKGLEWIGYINPSRGYTNYNQKVKDRFTISRDNSKNTAFLQMDSLRPEDTGVYFCARYYDDHYSLDYWGQGTPVTVSSGGGGSGGGGSGGGGSDIQMTQSPSSLSASVGDRVTITCSASSSVSYMNWYQQTPGKAPKRWIYDTSKLASGVPSRFSGSGSGTDYTFTISSLQPEDIATYYCQQWSSNPFTFGQGTKLQITRGGGGSDIQMTQSPASLSASLGETVSIECLASEDIYSYLAWYQQKPGKSPQLLIFAANRLQDGVPSRFSGSGSGTQFSLKISGMQPEDEGDYFCLQGSKFPYTFGPGTKLELNRTVAAPSVFIFPPSDEQLKSGTASVVCLLNNFYPREAKVQWKVDNALQSGNSQESVTEQDSKDSTYSLSSTLTLSKADYEKHKVYACEVTHQGLSSPVTKSFNRGEC | 0.039 nM | 0.0123 µM
Antibody 27 (bispecific antibody, B3 Fab with hOKT3 scFv at the heavy chain C-terminus and at the light chain N-terminus) heavy: QVQLQQSGAELVKPGSSVKISCKASGYTFTRNFIHWIKQQPGNGLEWIGWIFPGDGDTEYNQKFNGKATLTADKSSSTAYMQLSSLTSEDSAVYFCARGNYNYEYFDYWGQGVMVTVSSASTKGPSVFPLAPSSKSTSGGTAALGCLVKDYFPEPVTVSWNSGALTSGVHTFPAVLQSSGLYSLSSVVTVPSSSLGTQTYICNVNHKPSNTKVDKRVEPKSCGGGGSQVQLVQSGGGVVQPGRSLRLSCKASGYTFTRYTMHWVRQAPGKGLEWIGYINPSRGYTNYNQKVKDRFTISRDNSKNTAFLQMDSLRPEDTGVYFCARYYDDHYSLDYWGQGTPVTVSSGGGGSGGGGSGGGGSDIQMTQSPSSLSASVGDRVTITCSASSSVSYMNWYQQTPGKAPKRWIYDTSKLASGVPSRFSGSGSGTDYTFTISSLQPEDIATYYCQQWSSNPFTFGQGTKLQITRHHHHHH light: QVQLVQSGGGVVQPGRSLRLSCKASGYTFTRYTMHWVRQAPGKGLEWIGYINPSRGYTNYNQKVKDRFTISRDNSKNTAFLQMDSLRPEDTGVYFCARYYDDHYSLDYWGQGTPVTVSSGGGGSGGGGSGGGGSDIQMTQSPSSLSASVGDRVTITCSASSSVSYMNWYQQTPGKAPKRWIYDTSKLASGVPSRFSGSGSGTDYTFTISSLQPEDIATYYCQQWSSNPFTFGQGTKLQITRGGGGSDIQMTQSPASLSASLGETVSIECLASEDIYSYLAWYQQKPGKSPQLLIFAANRLQDGVPSRFSGSGSGTQFSLKISGMQPEDEGDYFCLQGSKFPYTFGPGTKLELNRTVAAPSVFIFPPSDEQLKSGTASVVCLLNNFYPREAKVQWKVDNALQSGNSQESVTEQDSKDSTYSLSSTLTLSKADYEKHKVYACEVTHQGLSSPVTKSFNRGEC | 0.036 nM | 0.0136 µM
Antibody 28 (bispecific antibody, format not described) chain 1: QVTLKESGPVLVKPTETLTLTCTVSGYSITSDYAWNWIRQPPGKALEWLAYISYSGSTSYNPSLKSRLSITKDTSKSQVVLTMTNMDPVDTATYYCARDPPYYYGSWGQGTTVTVSSASTKGPSVFPLAPSSKSTSGGTAALGCLVKDYFPEPVTVSWNSGALTSGVHTFPAVLQSSGLYSLSSVVTVPSSSLGTQTYICNVNHKPSNTKVDKRVEPKSCGGGGSQVQLVQSGGGVVQPGRSLRLSCKASGYTFTRYTMHWVRQAPGKGLEWIGYINPSRGYTNYNQKVKDRFTISRDNSKNTAFLQMDSLRPEDTGVYFCARYYDDHYSLDYWGQGTPVTVSSGGGGSGGGGSGGGGSDIQMTQSPSSLSASVGDRVTITCSASSSVSYMNWYQQTPGKAPKRWIYDTSKLASGVPSRFSGSGSGTDYTFTISSLQPEDIATYYCQQWSSNPFTFGQGTKLQITRHHHHHH chain 2: DVVMTQSPLSLPVTLGQPASISCKSSQSLLDSDGKTYLNWLQQRPGQSPRRLIYLVSKLDSGVPDRFSGSGSGTDFTLKISRVEAEDVGVYHCWQGTHFPYTFGGGTKVEIKRTVAAPSVFIFPPSDEQLKSGTASVVCLLNNFYPREAKVQWKVDNALQSGNSQESVTEQDSKDSTYSLSSTLTLSKADYEKHKVYACEVTHQGLSSPVTKSFNRGEC | 5.43 nM | 1480 µM
Antibody 29 (bispecific antibody, format not described) chain 1: QVQLVQSGAEVKKPGASVKVSCKASGYSFTGYYIHWVRQAPGQGLEWIGYISAYNGASSYNQKFKGRATFTVDTSISTAYMELSRLRSDDTAVYYCASSMDYWGQGTLVTVSSASTKGPSVFPLAPSSKSTSGGTAALGCLVKDYFPEPVTVSWNSGALTSGVHTFPAVLQSSGLYSLSSVVTVPSSSLGTQTYICNVNHKPSNTKVDKRVEPKSCGGGGSQVQLVQSGGGVVQPGRSLRLSCKASGYTFTRYTMHWVRQAPGKGLEWIGYINPSRGYTNYNQKVKDRFTISRDNSKNTAFLQMDSLRPEDTGVYFCARYYDDHYSLDYWGQGTPVTVSSGGGGSGGGGSGGGGSDIQMTQSPSSLSASVGDRVTITCSASSSVSYMNWYQQTPGKAPKRWIYDTSKLASGVPSRFSGSGSGTDYTFTISSLQPEDIATYYCQQWSSNPFTFGQGTKLQITRHHHHHH chain 2: DVVMTQSPLSLPVTLGQPASISCKSSQSLLDSDGKTYLNWLQQRPGQSPKRLIYLVSKLDSGVPDRFSGSGSGTDFTLKISRVEAEDVGVYHCWQGTHFPYTFGQGTKLEIKRTVAAPSVFIFPPSDEQLKSGTASVVCLLNNFYPREAKVQWKVDNALQSGNSQESVTEQDSKDSTYSLSSTLTLSKADYEKHKVYACEVTHQGLSSPVTKSFNRGEC | 0.634 nM | 5.7 µM
